System: Escherichia coli TOP10
Assay: shrunken log2 fold change of peptide-encoding DNA abundance (4.5 h post-induction vs induction); higher = less antimicrobial activity (less host growth inhibition)
Details: time post-induction: 4.5 h; library: site-saturation at positions 5, 18, 19, 20
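Also: peptides expressed intracellularly from a pBAD plasmid library in pooled LB shake-flask culture, induced with 0.3% L-arabinose, DNA abundance read by NGS, three biological replicates, DESeq2 with apeglm shrinkage.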

Sequence: RRIRKRPPRLPRPRPRPWQIPRP
- shrunken log2 fold change: 0.141

Sequence: RRIRPRPPRLPRPRPRPRFTPRP
- shrunken log2 fold change: 0.116

Sequence: RRIRKRPPRLPRPRPRPYFEPRP
- shrunken log2 fold change: -0.584

Sequence: RRIRDRPPRLPRPRPRPYEKPRP
- shrunken log2 fold change: -0.191

Sequence: RRIRARPPRLPRPRPRPSFFPRP
- shrunken log2 fold change: 0.238

Sequence: RRIRNRPPRLPRPRPRPCIYPRP
- shrunken log2 fold change: -0.599

Sequence: RRIRDRPPRLPRPRPRPDLKPRP
- shrunken log2 fold change: 0.169

Sequence: RRIRYRPPRLPRPRPRPTMSPRP
- shrunken log2 fold change: -0.0772

Sequence: RRIRHRPPRLPRPRPRPQFRPRP
- shrunken log2 fold change: -0.0324

Sequence: RRIRHRPPRLPRPRPRPRTLPRP
- shrunken log2 fold change: -0.137

Sequence: RRIRYRPPRLPRPRPRPPIKPRP
- shrunken log2 fold change: -0.518

Sequence: RRIRCRPPRLPRPRPRPYNSPRP
- shrunken log2 fold change: -0.325

Sequence: RRIRQRPPRLPRPRPRPICVPRP
- shrunken log2 fold change: -0.307

Sequence: RRIRTRPPRLPRPRPRPFNGPRP
- shrunken log2 fold change: -0.142

Sequence: RRIRMRPPRLPRPRPRPKWRPRP
- shrunken log2 fold change: 0.797

Sequence: RRIRYRPPRLPRPRPRPRKAPRP
- shrunken log2 fold change: 0.00796

Sequence: RRIRWRPPRLPRPRPRPWVTPRP
- shrunken log2 fold change: -0.37

Sequence: RRIRPRPPRLPRPRPRPCIPPRP
- shrunken log2 fold change: -0.556

Sequence: RRIRRRPPRLPRPRPRPCHAPRP
- shrunken log2 fold change: -0.0577

Sequence: RRIRLRPPRLPRPRPRPSSCPRP
- shrunken log2 fold change: -0.277

Sequence: RRIRARPPRLPRPRPRPWITPRP
- shrunken log2 fold change: -0.0939

Sequence: RRIRARPPRLPRPRPRPPHQPRP
- shrunken log2 fold change: 0.952

Sequence: RRIRPRPPRLPRPRPRPIHKPRP
- shrunken log2 fold change: -0.561

Sequence: RRIRTRPPRLPRPRPRPTPPPRP
- shrunken log2 fold change: 0.589

Sequence: RRIRMRPPRLPRPRPRPFLGPRP
- shrunken log2 fold change: 0.254

Sequence: RRIRHRPPRLPRPRPRPTATPRP
- shrunken log2 fold change: 0.39

Sequence: RRIRARPPRLPRPRPRPPMIPRP
- shrunken log2 fold change: -0.172

Sequence: RRIRWRPPRLPRPRPRPKHGPRP
- shrunken log2 fold change: 0.186

Sequence: RRIRIRPPRLPRPRPRPLRDPRP
- shrunken log2 fold change: 0.0322

Sequence: RRIRSRPPRLPRPRPRPIVFPRP
- shrunken log2 fold change: -0.0485

Sequence: RRIRERPPRLPRPRPRPQAYPRP
- shrunken log2 fold change: -0.131

Sequence: RRIRRRPPRLPRPRPRPQSWPRP
- shrunken log2 fold change: 0.519

Sequence: RRIRIRPPRLPRPRPRPGVCPRP
- shrunken log2 fold change: 0.0702

Sequence: RRIRNRPPRLPRPRPRPREMPRP
- shrunken log2 fold change: 0.0274

Sequence: RRIRGRPPRLPRPRPRPPVVPRP
- shrunken log2 fold change: 1.7

Sequence: RRIRERPPRLPRPRPRPEMSPRP
- shrunken log2 fold change: 0.0528

Sequence: RRIRRRPPRLPRPRPRPNRSPRP
- shrunken log2 fold change: 0.339

Sequence: RRIRYRPPRLPRPRPRPYMQPRP
- shrunken log2 fold change: -0.117

Sequence: RRIRRRPPRLPRPRPRPHRTPRP
- shrunken log2 fold change: 0.102

Sequence: RRIRMRPPRLPRPRPRPLGWPRP
- shrunken log2 fold change: 1.32

Sequence: RRIRERPPRLPRPRPRPCGGPRP
- shrunken log2 fold change: -0.0228

Sequence: RRIRIRPPRLPRPRPRPSPHPRP
- shrunken log2 fold change: -1.03

Sequence: RRIRPRPPRLPRPRPRPMAKPRP
- shrunken log2 fold change: 0.646

Sequence: RRIRSRPPRLPRPRPRPTWPPRP
- shrunken log2 fold change: 0.41

Sequence: RRIRLRPPRLPRPRPRPQGQPRP
- shrunken log2 fold change: -0.0201

Sequence: RRIRERPPRLPRPRPRPQMIPRP
- shrunken log2 fold change: 0.132

Sequence: RRIRFRPPRLPRPRPRPHANPRP
- shrunken log2 fold change: -0.16

Sequence: RRIRPRPPRLPRPRPRPHVWPRP
- shrunken log2 fold change: 0.51

Sequence: RRIRNRPPRLPRPRPRPHHHPRP
- shrunken log2 fold change: -0.617

Sequence: RRIRNRPPRLPRPRPRPWWTPRP
- shrunken log2 fold change: -0.129

Sequence: RRIRIRPPRLPRPRPRPGPFPRP
- shrunken log2 fold change: -0.239

Sequence: RRIRLRPPRLPRPRPRPFAPPRP
- shrunken log2 fold change: 0.263

Sequence: RRIRSRPPRLPRPRPRPYVKPRP
- shrunken log2 fold change: -0.351

Sequence: RRIRDRPPRLPRPRPRPLTCPRP
- shrunken log2 fold change: 0.254

Sequence: RRIRIRPPRLPRPRPRPTRGPRP
- shrunken log2 fold change: 0.0292

Sequence: RRIRGRPPRLPRPRPRPDYPPRP
- shrunken log2 fold change: 0.121

Sequence: RRIRHRPPRLPRPRPRPKHGPRP
- shrunken log2 fold change: 0.109

Sequence: RRIRYRPPRLPRPRPRPKAGPRP
- shrunken log2 fold change: -0.118

Sequence: RRIRCRPPRLPRPRPRPDVYPRP
- shrunken log2 fold change: 0.0165

Sequence: RRIRRRPPRLPRPRPRPLYCPRP
- shrunken log2 fold change: -0.115

— the supplement of paper PMC9112550, “Optimization of the antimicrobial peptide Bac7 by deep mutational scanning” (BMC Biology, 2022)
